T1: FLAG-CAL1 (Drosophila, UniProt Q9VEN2 1-979)
T1 construct: Chromosome Alignment 1 (CAL1), Drosophila; The results say the fusion is expressed under the endogenous CAL1 promoter, the methods say under the pCopia promoter; also called FLAG-tagged CAL1; Chromosome Alignment 1; source: Drosophila S2 cells stably expressing FLAG-CAL1, in chromatin-free extract / nuclear (chromatin) extract; not shown: FLAG, N-terminal, kept
T1 sequence (looked up): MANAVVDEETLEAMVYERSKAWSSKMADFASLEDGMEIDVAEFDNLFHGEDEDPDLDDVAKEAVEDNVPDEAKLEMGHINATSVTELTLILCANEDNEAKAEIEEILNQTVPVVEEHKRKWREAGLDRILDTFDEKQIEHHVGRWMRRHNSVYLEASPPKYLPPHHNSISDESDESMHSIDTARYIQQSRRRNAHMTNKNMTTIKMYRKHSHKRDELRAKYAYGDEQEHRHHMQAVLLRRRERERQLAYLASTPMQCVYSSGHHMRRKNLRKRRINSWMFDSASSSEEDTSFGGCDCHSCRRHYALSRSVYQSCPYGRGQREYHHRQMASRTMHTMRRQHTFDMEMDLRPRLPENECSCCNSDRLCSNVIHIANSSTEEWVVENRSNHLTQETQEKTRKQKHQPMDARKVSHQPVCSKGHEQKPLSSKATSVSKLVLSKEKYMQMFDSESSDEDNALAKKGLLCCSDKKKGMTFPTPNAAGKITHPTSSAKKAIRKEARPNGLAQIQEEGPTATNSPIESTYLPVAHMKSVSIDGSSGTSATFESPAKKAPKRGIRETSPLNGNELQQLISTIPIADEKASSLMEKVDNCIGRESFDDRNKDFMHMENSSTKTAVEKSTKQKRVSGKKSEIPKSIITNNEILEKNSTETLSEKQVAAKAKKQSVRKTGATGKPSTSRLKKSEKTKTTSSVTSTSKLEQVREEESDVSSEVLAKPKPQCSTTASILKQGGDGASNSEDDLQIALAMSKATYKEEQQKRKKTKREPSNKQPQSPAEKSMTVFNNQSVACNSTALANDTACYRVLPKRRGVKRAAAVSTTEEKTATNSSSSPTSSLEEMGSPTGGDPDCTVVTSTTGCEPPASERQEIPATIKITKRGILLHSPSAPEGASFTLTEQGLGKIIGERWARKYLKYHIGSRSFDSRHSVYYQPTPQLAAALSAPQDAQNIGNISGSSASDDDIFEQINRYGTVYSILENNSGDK

B1: Modulo (natural protein, Drosophila (endogenous in S2 cells), UniProt P13469 1-542, looked up)
chain: MAQKKAVTVKGKKATNGEEKPLAKRVTKSTKVQEEETVVPQSPSKKSRKQPVKEVPQFSEEDESDVEEQNDEQPGDDSDFETEEAAGLIDDEAEEDEEYNSDDEEDDDDDELEPGEVSKSEGADEVDESDDDEEAPVEKPVSKKSEKANSEKSEENRGIPKVKVGKIPLGTPKNQIVFVTNLPNEYLHKDLVALFAKFGRLSALQRFTNLNGNKSVLIAFDTSTGAEAVLQAKPKALTLGDNVLSVSQPRNKEENNERTVVVGLIGPNITKDDLKTFFEKVAPVEAVTISSNRLMPRAFVRLASVDDIPKALKLHSTELFSRFITVRRISQESISRTSELTLVVENVGKHESYSSDALEKIFKKFGDVEEIDVVCSKAVLAFVTFKQSDAATKALAQLDGKTVNKFEWKLHRFERSTSGRAILVTNLTSDATEADLRKVFNDSGEIESIIMLGQKAVVKFKDDEGFCKSFLANESIVNNAPIFIEPNSLLKHRLLKKRLAIGQTRAPRKFQKDTKPNFGKKPFNKRPAQENGGKSFVKRARF
notes: Modulo, Drosophila nucleolar protein, endogenous in S2 cells; runs as a 75 KDa protein; also called nucleolar protein Modulo; Drosophila nucleolin homolog; source: endogenous, Drosophila S2 cells, in chromatin-free extract / nuclear (chromatin) extract
B2: CAL1 (natural protein, Drosophila (endogenous in S2 cells), UniProt Q9VEN2 1-979, looked up)
chain: T1 sequence (looked up)
notes: Chromosome Alignment 1 (CAL1), Drosophila, endogenous in untransfected S2 cells; runs approximately as a 150 KDa protein; also called Chromosome Alignment 1; source: endogenous, Drosophila S2 cells, in nuclear (chromatin) extract

For one assay, the target named is T1, FLAG-CAL1. In words: co-IP; anti-FLAG M2 agarose, 2 h at 4°C, extracts of nuclei from S2 cells stably expressing FLAG-CAL1 and from untagged S2 cells; Western blot with anti-Modulo; quantified with Image J. Particulars: partners not purified. (A western blot detects proteins with antibodies after separation by electrophoresis.)
For the assay “Modulo”, the target named is B1. In words: co-IP; anti-Modulo antibody coupled to Dynabead Protein-A, 2 h at 4°C, extracts of nuclei from S2 cells; mock IP without antibody; Western blot with anti-CAL1. Particulars: partners not purified.

Consider B1, for which, in the assay with FLAG-CAL1, the “fold enrichment in the FLAG-CAL1 IP over the IP from untagged S2 cells” value is 5 fold.
For B2, the “fold enrichment in the anti-Modulo IP over the mock IP” value with Modulo was found to be 8 fold.
